Experimental findings from patent publication US20130230533A1 (Regeneron, published 2013) are described below.

Assay [1] deals with T1, Monomeric human CD48-mmH (human).
T1 construct: also called soluble CD48 expressed with a myc-myc-hexa-histidine C-terminal tag [mmH]
T1 chain: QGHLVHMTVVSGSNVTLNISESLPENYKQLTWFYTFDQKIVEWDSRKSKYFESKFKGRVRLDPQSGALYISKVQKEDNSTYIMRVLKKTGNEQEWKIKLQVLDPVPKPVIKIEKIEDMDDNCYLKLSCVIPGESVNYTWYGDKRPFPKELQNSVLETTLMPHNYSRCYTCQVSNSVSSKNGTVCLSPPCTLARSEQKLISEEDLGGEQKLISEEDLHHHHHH
Kind of assay: SPR (Biacore T100), 25 C, antibody captured by anti-Fc, monomeric CD48-mmH in solution. The procedure:
(§1) Measurements were conducted on a T100-2 BIACORE™ instrument (Biacore Life Sciences division of GE Healthcare, Piscataway, N.J.). Antibodies (either with mouse Fc [designated “H2M” or “H3M”] or human IgG4 Fc [designated “H4H”]) were captured through an anti-Fc chip surface, and CD48 was flowed over the surface either in a monomeric (soluble CD48 expressed with a myc-myc-hexa-histidine C-terminal tag [mmH]) or dimeric (soluble CD48 expressed with a C-terminal Fc fusion [mFc]) format.
(§2) The soluble CD48 was applied to the flow cell in separate injections at different concentrations, and kinetic association (kₐ) and dissociation (kd) rate constants were determined by fits to the kinetic binding data using Biacore software. Binding dissociation equilibrium constants and dissociation half-times were calculated from the kinetic rate constants as: KD=kd/kₐ; t_{1/2}=(ln 2/kd) (units: ka=M⁻¹*s⁻¹; kd=s⁻¹; KD=M; T½=min) (Tables 3-6).
In general terms: SPR reads the build-up and loss of mass on a sensor chip optically.

Assay [2] addresses T2, Dimeric human CD48-mFc (human).
T2 chain: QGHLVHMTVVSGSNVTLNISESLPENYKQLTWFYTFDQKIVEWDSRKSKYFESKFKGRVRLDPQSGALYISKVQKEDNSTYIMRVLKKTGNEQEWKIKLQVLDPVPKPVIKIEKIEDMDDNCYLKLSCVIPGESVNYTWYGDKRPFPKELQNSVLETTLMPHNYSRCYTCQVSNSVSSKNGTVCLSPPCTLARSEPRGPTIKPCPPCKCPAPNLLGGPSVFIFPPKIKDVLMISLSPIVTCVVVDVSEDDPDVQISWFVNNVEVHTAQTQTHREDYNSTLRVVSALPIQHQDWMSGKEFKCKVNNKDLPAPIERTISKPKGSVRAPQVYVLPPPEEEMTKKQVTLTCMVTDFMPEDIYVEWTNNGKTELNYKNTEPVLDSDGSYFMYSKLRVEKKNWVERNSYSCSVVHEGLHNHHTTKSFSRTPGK
Kind of assay: SPR (Biacore T100), 25 C, antibody captured by anti-Fc, dimeric CD48-mFc in solution. As for the experimental part:
as §1, §2

By Kd is commonly meant the constant that tells how readily two partners part at equilibrium. Low readings indicate tighter binding, high ones weaker binding. Usually koff stands for a measure of how fast the partners let go of each other. As usually defined, the kon is a measure of how fast the partners come together. A higher kon goes with faster complex formation.

B1: H4H1789Pa (antibody, V domains shown)
VH: EVQLLESGGGLVHPGGSLRLSCAASGFTFGGYAMSWVRQAPGKGLEWVSLISGSGGSTYYADSVKGRFTIFRDNSKNTLYLQMISLRAEDSAVYYCAKYSNYDYFDPWGQGTLVTVSS
VL: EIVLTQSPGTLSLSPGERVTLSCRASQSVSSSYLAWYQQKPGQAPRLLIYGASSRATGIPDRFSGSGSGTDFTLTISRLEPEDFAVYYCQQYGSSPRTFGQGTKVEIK
notes: Human IgG4 Fc (prefix H4H)
On to B1, for which, in assay [1], binding was put at a Kd of 3.2 nM, the T½ worked out at 0.417 h, the koff came out at 0.000458 s⁻¹ and the kon is 143000 M⁻¹ s⁻¹. Also, in assay [2], the dissociation constant Kd came to 0.0958 nM, the T½ turned out to be 5.25 h, the koff came to 3.66e-05 s⁻¹ and the kon was 382000 M⁻¹ s⁻¹.

B2: H4H1774P (antibody, human IgG4, V domains shown)
VH: QVQLVESGGGVVQPGRSLRLSCAASGFTFSNYGMHWVRQAPGKGLEWVAVIWYDESSKYYTDSVKGRFTISRDNSQNTLYLQMTSLRAEDTAVYYCARDRWTYSHYFEYWGQGTLVTVSS
VL: DIQMTQSPSSVSASVGDRVTITCRASQGISSWVAWYQQKPGKAPKLLIYAASSLQSGVPSRFSGSGSGTDFTLTISSLQPEDFATYYCQQANSFPRTFGQGTKVEIK
notes: Human IgG4 Fc (prefix H4H)
On to B2, for which, in assay [1], the affinity, expressed as Kd, was 0.454 nM; the T½ stood at 4.08 h; the koff came out at 4.72e-05 s⁻¹; the kon was 104000 M⁻¹ s⁻¹. In assay [2], this molecule registered a Kd of 0.0149 nM, a T½ of 41.4 h, a koff of 4.65e-06 s⁻¹ and a kon of 311000 M⁻¹ s⁻¹.

B3: H4H1781P (antibody, human IgG4, V domains shown)
VH: QVQLVESGGGVVQPGRSLRLSCAASGFTFSNYGMHWVRQAPGKGLEWVAVIWYDDSNKNYADSVKGRFTISRDNSKNTLYLQMNSLRVEDTAVYYCARDRWTYSHFFEYWGQGTLVTVSS
VL: DIQMTQSPSSVSASVGDRVTITCRASQGISSWLAWYQQKPGKAPNLLIYAASSLQSGVPSRFGGSGSGTDFSLTISGLQPEDFATYYCQQANSFPRTFGQGTKVEIK
notes: Human IgG4 Fc (prefix H4H)
In assay [1], B3 returned a Kd of 0.194 nM, a T½ of 5.85 h, a dissociation rate constant (koff) of 3.3e-05 s⁻¹ and a kon of 170000 M⁻¹ s⁻¹. In assay [2], this molecule showed a Kd of 0.0144 nM, a T½ of 15.7 h, a koff of 1.23e-05 s⁻¹ and a kon of 854000 M⁻¹ s⁻¹.

B4: H4H1778P (antibody, human IgG4, V domains shown)
VH: QVQLVESGGGVVQPGRSLRLSCAASGFTFSNYGMHWVRQAPGKGLEWVAVIWYDESSKYYTDSVKGRFTISRDNSQNTLYLQMTSLRAEDTAVYYCARDRWTYSHYFEYWGQGTLVTVSS
VL: DIQMTQSPSSVSASVGDRVTITCRASQGISSWVAWYQQKPGKAPKLLIYAASSLQSGVPSRFSGSGSGTDFTLTISSLQPEDFATYYCQQANSFPRTFGQGTKVEIK
notes: Human IgG4 Fc (prefix H4H)
Consider B4, for which, in assay [1], the Kd worked out at 0.476 nM, the T½ came to 4.1 h, the koff was 4.69e-05 s⁻¹ and the kon was 98600 M⁻¹ s⁻¹. For the same molecule, in assay [2], binding was characterised by a dissociation constant (Kd) of 0.0304 nM, the T½ came to 21.5 h, the koff is 8.95e-06 s⁻¹ and the kon was determined as 294000 M⁻¹ s⁻¹.

B5: H4H1775P (antibody, human IgG4, V domains shown)
VH: QVQLVESGGGVVQPGRSLRLSCAASGFTFSNYGMHWVRQAPGKGLEWVAVIWYDESGKHYADSVKGRFTISRDNSQNTLYLQMTSLRAEDTAVYYCARDRWTYSHYFEYWGQGTLVTVSS
VL: DIQMTQSPSSVSASVGDRVTITCRASQDISSWVAWYQQKPGKAPKLLIYAASSLQSGVPSRFSGSGSGTDFTLTISSLQPEDFATYYCQQANSFPRTFGQGTKVEIK
notes: Human IgG4 Fc (prefix H4H)
In assay [1], B5 yielded a Kd of 0.34 nM, a T½ of 3.92 h, a koff of 4.92e-05 s⁻¹ and a kon of 145000 M⁻¹ s⁻¹. Also, in assay [2], the Kd is 0.0179 nM, the T½ turned out to be 14.7 h, the koff stood at 1.31e-05 s⁻¹ and the kon worked out at 734000 M⁻¹ s⁻¹.

B6: H4H1779P (antibody, human IgG4, V domains shown)
VH: QVQLVESGGGVVQPGRSLRLSCAASGFTFSNYGMHWVRQAPGKGLEWVAVIWYDESSKHYADSVKGRFTISRDNSQNTLYLQMTSLRAEDTAVYYCARDRWTYSHYFEYWGQGTLVTVSS
VL: DIQMTQSPSSVSASVGDRVTITCRASQDISSWVAWYQQKPGKAPKLLIYAASSLQSGVPSRFSGSGSGTDFTLTISSLQPEDFATYYCQQANSFPRTFGQGTKVEIK
notes: Human IgG4 Fc (prefix H4H)
In assay [1], B6 registered a Kd of 0.246 nM, a T½ of 4.93 h, a koff of 3.9e-05 s⁻¹ and a kon of 158000 M⁻¹ s⁻¹. In assay [2], this molecule returned a Kd of 0.0151 nM, a T½ of 16.5 h, a koff of 1.17e-05 s⁻¹ and a kon of 774000 M⁻¹ s⁻¹.

B7: H2M1709N (antibody, mouse IgG2, V domains shown)
VH: QVQLVQSGAEVKKPGASVKVSCKVSGYTLTELSIHWVRQAPGKGLEWMGGFDPEDGETIYAQKFQGRVNMTEDTSTDTAYMELSSLRSDDTTVYFCASLLPYFDYWGQGTLVTVSS
VL: EIVLTQSPGTLSLSPGERATLSCRASQSVSSSYLAWYQQKPGQAPRLLIYGASSRATGIPDRFSGSGSGTDFTLSISRLEPEDFAVYFCQQYGSSMYTFGQGTKLEIK
notes: Human variable domains, mouse IgG2 Fc (prefix H2M)
As to B7, in assay [1], the Kd came out at 19.8 nM, the T½ is 0.0333 h, the koff amounted to 0.0058 s⁻¹ and the kon amounted to 292000 M⁻¹ s⁻¹. In assay [2], this molecule gave a Kd of 0.311 nM, a T½ of 0.667 h, a koff of 0.000288 s⁻¹ and a kon of 928000 M⁻¹ s⁻¹.

B8: H2M1763N (antibody, mouse IgG2, V domains shown)
VH: QIQLVQSGAEMKRPGTSVKVSCKASGYTFTSYGINWVRQAPGQGLEWMGWISAYNGDTNYAQKLQGRVTMTTDTSTTTAYMEVRSLRSDDTAVYYCARFLTGTKDYYYGMDVWGQGTTVTVSS
VL: DIQMTQSPSSLSASVGDRVTITCQASQDISNFLNWYQQKPGKAPDLLINDASILETGVPSRFSGSGSGTDFTLTINNLQPEDIATYYCQQYDNLPLTFGGGTKVEIK
notes: as for B7
For B8, in assay [1], the dissociation constant Kd came to 11.8 nM, the T½ was determined as 0.0333 h, the koff amounted to 0.00648 s⁻¹ and the kon was determined as 548000 M⁻¹ s⁻¹. In assay [2], this molecule gave a Kd of 0.256 nM, a T½ of 0.383 h, a koff of 0.000499 s⁻¹ and a kon of 1.95e+06 M⁻¹ s⁻¹.

B9: H2M1712N (antibody, mouse IgG2, V domains shown)
VH: QIQLVQSGAEMKRPGTSVKVSCKASGYTFSSYGINWVRQAPGQGLEWMGWISAYNGDTNYAQKLQGRVTMTTDTSTTTAYMEVRSLRSDDTAVYYCARFLTGTKDLYYGMDVWGQGTTVTVSS
VL: DIQMTQSPSSLSASVGDRVTITCQASQDISNFLNWYQQKPGKAPDLLINDASILETGVPSRFSGSGSGTDFTLTINSLQPEDIATYYCQQYDNLPLTFGGGTKVEIK
notes: as for B7
In assay [1], B9 came in with a Kd of 11.8 nM, a T½ of 0.0333 h, a koff of 0.00619 s⁻¹ and a kon of 524000 M⁻¹ s⁻¹. Moreover, in assay [2], the Kd stood at 0.288 nM, the T½ is 0.367 h, the koff was determined as 0.00053 s⁻¹ and the kon was found to be 1.84e+06 M⁻¹ s⁻¹.

B10: H2M1811N (antibody, mouse IgG2, V domains shown)
VH: QVQLVQSGAEAREPGASVRVSCKASGYTFTDYFIHWVRQAPGQGLEWMGWINPNSGATNFAQKFQGRVTMTRDTSLITAYMDLSRLKSDDAAVFYCARDVDGSGWYLDFWGQGTLVTVSS
VL: EIVLTQSPATLSLSPGERATLSCRASQSVSIYLAWYQQKPGQAPRLLIYDASNRATGIPARFSGSGSGTDFTLTISRLEPEDFAVYYCQQRSDWPPSITFGQGTRLEIK
notes: as for B7
With B10, in assay [1], the Kd is 17 nM, the T½ was determined as 0.233 h, the koff was 0.000849 s⁻¹ and the kon turned out to be 50000 M⁻¹ s⁻¹. In assay [2], this molecule yielded a Kd of 1.6 nM, a T½ of 0.833 h, a koff of 0.00023 s⁻¹ and a kon of 144000 M⁻¹ s⁻¹.

B11: H2M1710N (antibody, mouse IgG2, V domains shown)
VH: QVQLVQSGADMKKPGASVRVSCKASGYTFTDYFIHWVRQAPGQGPEWMGWINPDSGATNYAQQFQGRVTMTRDTSISATYMEMSRLRSDDTAVFYCARDKDGSGWYLDDWGQGTLVTVSS
VL: EIVLTQSPATLSLSPGERATLSCRASQSVNIYLAWYQQKPGQAPRLLIYDASNRASGIPARFSGSGSGTDFTLTISSLEPEDFAVYYCQQRSNWPPSITFGQGTRLEIK
notes: as for B7
On to B11, for which, in assay [1], the Kd amounted to 39.1 nM, the T½ came out at 0.133 h, the koff is 0.00146 s⁻¹ and the kon was 37300 M⁻¹ s⁻¹. Also, in assay [2], the Kd is 0.841 nM, the T½ was 2.05 h, the koff is 9.38e-05 s⁻¹ and the kon came to 112000 M⁻¹ s⁻¹.
